Tests used:
[1] = tested on: Iron regulatory protein 1 (rIRP1); assay: EMSA; details: aminoallyl-UTP-ATTO-680 incorporated in the labeled probe; competitor unmodified; 100 ng probe heated 3 min at 95 C, 120 ng His-IRP, 15 min room temperature, then 50 ug sodium heparin 10 min; 5% native acrylamide gel, 1x TBE; binding buffer …
[2] = tested on: Iron regulatory protein 2 (rIRP2); assay: EMSA; details: aminoallyl-UTP-ATTO-680 incorporated in the labeled probe; competitor unmodified; 100 ng probe heated 3 min at 95 C, 120 ng His-IRP, 15 min room temperature, then 50 ug sodium heparin 10 min; 5% native acrylamide gel, 1x TBE; binding buffer …

FTL IRE WT
binding signal (% of WT signal) [1]: 100
binding signal (% of WT signal) [2]: 100

Source: publication PMC3585816
